Measurements taken from PMC4519192, “In vitro Selection and Interaction Studies of a DNA Aptamer Targeting Protein A”.

Experiments:
[1] = biological target: T1, Protein A, native biotinylated (Sigma P2165) (Staphylococcus aureus, UniProt P38507 37-477); assay: bead-based fluorescence binding; Protein A on streptavidin beads; settings: tags: biotin, label: 5'-fluorescein
[2] = biological target: T1, Protein A, native biotinylated (Sigma …); assay: SPR; steady state; Protein A immobilized ~600 RU; settings: tags: biotin, label: 5'-fluorescein
[3] = biological target: T2, Protein A, native (Sigma P3838) (Staphylococcus aureus, UniProt P38507 37-477); assay: MST; 25 C, in solution; settings: protein: native, label: 5'-fluorescein
[4] = biological target: T3, Protein A, recombinant (Sigma P7837) (UniProt P38507 37-327); assay: MST; 25 C, in solution; settings: protein: recombinant, label: 5'-fluorescein
[5] = biological target: T1, Protein A, native biotinylated (Sigma …); assay: SPR; kinetic 1:1 fit; ka 1.23e3 M-1s-1, kd 1.66e-3 s-1; settings: tags: biotin, label: 5'-fluorescein
[6] = biological target: human thrombin (89223 Fluka) (human, UniProt P00734;P00734 328-363;364-622); assay: SPR
[7] = biological target: Protein G, recombinant (Pierce 21193) (group G Streptococci, UniProt P06654 228-352); assay: SPR; 1000 nM protein; settings: label: 3'-biotin, predicted stem-loops, possible G4
[8] = biological target: T3, Protein A, recombinant (Sigma P7837); assay: SPR; single-cycle mode; aptamer 516 RU; settings: label: 3'-biotin
[9] = biological target: T2, Protein A, native (Sigma P3838); assay: SPR; steady state; aptamer immobilized 1158 RU; avidity; settings: label: 3'-biotin
[10] = biological target: T3, Protein A, recombinant (Sigma P7837); assay: SPR; steady state; aptamer immobilized 1086 RU; avidity; settings: label: 3'-biotin
[11] = biological target: T1, Protein A, native biotinylated (Sigma …); assay: bead-based fluorescence binding; settings: tags: biotin, label: 5'-fluorescein
[12] = biological target: T3, Protein A, recombinant (Sigma P7837); assay: SPR; steady state; aptamer immobilized 1030 RU; settings: label: 3'-biotin, predicted stem-loop

Sequence of Protein G, recombinant (Pierce 21193) (P06654 228-352): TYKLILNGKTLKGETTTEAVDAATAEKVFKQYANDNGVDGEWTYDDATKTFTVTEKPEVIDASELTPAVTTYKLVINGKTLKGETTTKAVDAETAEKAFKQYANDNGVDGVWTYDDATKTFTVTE

B1: PA#2/8 5'-fluorescein (structured_DNA)
DNA: ATACCAGCTTATTCAATTAGCAACATGAGGGGGATAGAGGGGGTGGGTTCTCTCGGCTACAATCGTAATCAGTTAG
- Kd [1]: 1060 ± 200 nM
- Kd [2]: 2220 ± 180 nM
- Kd [3]: 668 ± 224 nM
- Kd [4]: 927 ± 404 nM
- Kd [5]: 1350 nM

B2: PA#2/8 3'-biotin (structured_DNA)
DNA: B1 DNA
- binding result [6]: no binding
- binding result [7]: no binding
- Kd [8]: 148 ± 7.6 nM
- Kd [9]: 84 ± 5 nM
- Kd [10]: 172 ± 14 nM

B3: PA#2/8[S1-28] (structured_DNA)
DNA: ATACCAGCTTATTCAATTAGCAACATGA
- binding result [11]: no binding

B4: PA#2/8[S19-76] (structured_DNA)
DNA: AGCAACATGAGGGGGATAGAGGGGGTGGGTTCTCTCGGCTACAATCGTAATCAGTTAG
- binding result [11]: no binding

B5: PA#2/8[S1-35] (structured_DNA)
DNA: ATACCAGCTTATTCAATTAGCAACATGAGGGGGAT
- binding result [11]: no binding

B6: PA#2/8KR40 (structured_DNA)
DNA: AGCAACATGAGGGGGATAGAGGGGGTGGGTTCTCTCGGCT
- binding result [11]: no binding

B7: PA#2/8[S1-43] (structured_DNA)
DNA: ATACCAGCTTATTCAATTAGCAACATGAGGGGGATAGAGGGGG
- Kd ([3]; predicted stem-loop): 214 ± 46.1 nM
- Kd ([4]; predicted stem-loop): 579 ± 123 nM

B8: PA#2/8KR23 (structured_DNA)
DNA: GATAGAGGGGGTGGGTTCTCTCG
- binding result [11]: no binding

B9: PA#2/8[S1-58] 5'-fluorescein (structured_DNA)
DNA: ATACCAGCTTATTCAATTAGCAACATGAGGGGGATAGAGGGGGTGGGTTCTCTCGGCT
- Kd ([2]; predicted stem-loop): 1920 ± 250 nM
- Kd ([3]; predicted stem-loop): 222 ± 60.5 nM
- Kd ([4]; predicted stem-loop): 94.7 ± 64.6 nM

B10: PA#2/8[S1-58] 3'-biotin (structured_DNA)
DNA: B9 DNA
- Kd [12]: 287 ± 16.2 nM
